Source: paper PMC4899734, “Selective inhibition of apicoplast tryptophanyl-tRNA synthetase causes delayed death in Plasmodium falciparum” (Scientific Reports, 2016)

Columns and labels:
[1] = target: T1, apicoplast tryptophanyl-tRNA synthetase (TrpRS^api, PF3D7_1251700) (Plasmodium falciparum, UniProt A0A144A140); test: radiolabelled tryptophan tRNA aminoacylation assay with purified recombinant enzyme, […] indolmycin; type: biochemical
T1 sequence (A0A144A140 61-559): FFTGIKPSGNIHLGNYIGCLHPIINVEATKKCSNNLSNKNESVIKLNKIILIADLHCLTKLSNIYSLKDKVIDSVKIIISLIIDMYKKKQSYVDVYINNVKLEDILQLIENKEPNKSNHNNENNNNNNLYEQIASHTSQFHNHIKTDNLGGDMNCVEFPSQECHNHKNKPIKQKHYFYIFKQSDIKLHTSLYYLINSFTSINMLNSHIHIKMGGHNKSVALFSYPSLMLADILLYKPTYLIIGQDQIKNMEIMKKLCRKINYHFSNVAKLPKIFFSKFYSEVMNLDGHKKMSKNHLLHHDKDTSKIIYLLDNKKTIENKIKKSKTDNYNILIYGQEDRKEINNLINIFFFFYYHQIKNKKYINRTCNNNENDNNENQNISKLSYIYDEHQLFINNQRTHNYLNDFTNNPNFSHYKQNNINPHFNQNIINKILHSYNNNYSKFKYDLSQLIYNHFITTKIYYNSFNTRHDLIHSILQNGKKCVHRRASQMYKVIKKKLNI

[2] = substrate: N[C@@H](Cc1c[nH]c2ccccc12)C(=O)O; test: steady-state aminoacylation kinetics with purified enzyme (apparent Km); type: biochemical, Plasmodium falciparum; settings: ATP, Mg2+
[3] = substrate: Nc1ncnc2c1ncn2[C@@H]1O[C@H](COP(=O)(O)OP(=O)(O)OP(=O)(O)O)[C@@H](O)[C@H]1O; test: as above; type: biochemical, Plasmodium falciparum; settings: Mg2+

Molecule: CNC1=NC(=O)[C@H]([C@H](C)c2c[nH]c3ccccc23)O1 [indolmycin]
- radiolabelled tryptophan tRNA aminoacylation assay with purified recombinant enz [1]: at higher concentrations of indolmycin, tRNA^trp formation by TrpRS^api was reduced to background levels

B1: cytosolic tryptophanyl-tRNA synthetase (TrpRS^cyt, PF3D7_1336900) (Plasmodium falciparum 3D7) (protein)
chain: KDVTPWDVNINNEEGINYNKLIKEFGCSKITENHIKRIEKLTNSKAHHFIRRGIFFSHRDLDFLLNYYEQHKCFYIYTGRGPSSLSMHLGHLIPFYFCKYLQEAFNVPLVIQLSDDEKYLFNQNYSLEYINTLTNENVKDIISVGLNPELTFIFKNTEYAGYLYPTVLSIHKKTTLNQSMNVFGFNHSDNIGKISYPSFQIAPCFSQCFPNFLGKNIPCLVPQGIDQDPYFRLSRDIAVKMALHKPVVVHSVFMPGLQGVNSKMSSTKKKKDDNGKSNSTFDHNNSVIFLTDTPEQIKNKINKYAFSGGGTTIQEHREKGGNLDKDISYQYLRYLLEDDNKLNEIGEKYKKGEMLSGEIKKILIDVLTELVLKHQEKKKSLTDEEISYFFDPNKPSLQKFKNM
- Km [2]: 15.6 ± 0.6 µM
- Vmax [2]: 0.077 µmol/min
- Km [3]: 622 ± 0.3 µM
- Vmax [3]: 0.292 µmol/min

B2: apicoplast tryptophanyl-tRNA synthetase (TrpRS^api, PF3D7_1251700) (Plasmodium falciparum 3D7) (protein)
chain: FFTGIKPSGNIHLGNYIGCLHPIINVEATKKCSNNLSNKNESVIKLNKIILIADLHCLTKLSNIYSLKDKVIDSVKIIISLIIDMYKKKQSYVDVYINNVKLEDILQLIENKEPNKSNHNNENNNNNNLYEQIASHTSQFHNHIKTDNLGGDMNCVEFPSQECHNHKNKPIKQKHYFYIFKQSDIKLHTSLYYLINSFTSINMLNSHIHIKMGGHNKSVALFSYPSLMLADILLYKPTYLIIGQDQIKNMEIMKKLCRKINYHFSNVAKLPKIFFSKFYSEVMNLDGHKKMSKNHLLHHDKDTSKIIYLLDNKKTIENKIKKSKTDNYNILIYGQEDRKEINNLINIFFFFYYHQIKNKKYINRTCNNNENDNNENQNISKLSYIYDEHQLFINNQRTHNYLNDFTNNPNFSHYKQNNINPHFNQNIINKILHSYNNNYSKFKYDLSQLIYNHFITTKIYYNSFNTRHDLIHSILQNGKKCVHRRASQMYKVIKKKLNI
- Km [2]: 5.3 ± 1.2 µM
- Vmax [2]: 0.029 µmol/min
